Test results reported in patent US20240270821A1, “GIP/GLP1/GCG TRI-RECEPTOR AGONISTS AND USES THEREOF” (priority 2023, published 2024).

Key:
Test in all cases: cell-based or functional assay
hGLP-1R = hGLP-1R (Homo sapiens, UniProt P43220)
[1] = target: human glucagon receptor (human) (UniProt P47871)
[2] = target: T1, human GIP receptor (human) (UniProt P48546)
T1 sequence (looked up): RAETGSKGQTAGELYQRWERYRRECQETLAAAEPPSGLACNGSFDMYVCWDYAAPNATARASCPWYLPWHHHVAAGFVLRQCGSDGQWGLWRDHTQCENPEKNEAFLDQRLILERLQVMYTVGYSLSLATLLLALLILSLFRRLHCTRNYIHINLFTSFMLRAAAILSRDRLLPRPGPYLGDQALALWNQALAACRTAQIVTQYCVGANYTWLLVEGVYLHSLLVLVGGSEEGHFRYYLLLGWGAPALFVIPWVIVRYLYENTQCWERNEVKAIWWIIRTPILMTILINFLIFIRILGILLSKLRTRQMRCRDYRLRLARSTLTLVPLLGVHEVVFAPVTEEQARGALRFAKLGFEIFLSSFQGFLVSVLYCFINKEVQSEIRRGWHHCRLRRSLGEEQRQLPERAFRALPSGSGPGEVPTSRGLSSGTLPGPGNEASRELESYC

Chain of human glucagon receptor (human) (P47871 26-477): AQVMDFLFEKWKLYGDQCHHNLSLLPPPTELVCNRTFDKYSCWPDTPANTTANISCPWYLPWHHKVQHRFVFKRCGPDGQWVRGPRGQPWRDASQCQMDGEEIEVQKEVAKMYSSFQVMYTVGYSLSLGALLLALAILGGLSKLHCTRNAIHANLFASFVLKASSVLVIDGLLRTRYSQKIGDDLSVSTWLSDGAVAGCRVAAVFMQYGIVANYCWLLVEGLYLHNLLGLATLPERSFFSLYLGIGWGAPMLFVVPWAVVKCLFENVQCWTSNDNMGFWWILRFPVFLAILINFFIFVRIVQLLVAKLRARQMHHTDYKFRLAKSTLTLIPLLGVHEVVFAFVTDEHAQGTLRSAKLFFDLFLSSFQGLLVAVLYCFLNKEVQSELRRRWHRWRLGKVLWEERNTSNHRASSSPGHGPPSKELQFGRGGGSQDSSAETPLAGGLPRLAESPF
Chain of hGLP-1R (P43220 24-463): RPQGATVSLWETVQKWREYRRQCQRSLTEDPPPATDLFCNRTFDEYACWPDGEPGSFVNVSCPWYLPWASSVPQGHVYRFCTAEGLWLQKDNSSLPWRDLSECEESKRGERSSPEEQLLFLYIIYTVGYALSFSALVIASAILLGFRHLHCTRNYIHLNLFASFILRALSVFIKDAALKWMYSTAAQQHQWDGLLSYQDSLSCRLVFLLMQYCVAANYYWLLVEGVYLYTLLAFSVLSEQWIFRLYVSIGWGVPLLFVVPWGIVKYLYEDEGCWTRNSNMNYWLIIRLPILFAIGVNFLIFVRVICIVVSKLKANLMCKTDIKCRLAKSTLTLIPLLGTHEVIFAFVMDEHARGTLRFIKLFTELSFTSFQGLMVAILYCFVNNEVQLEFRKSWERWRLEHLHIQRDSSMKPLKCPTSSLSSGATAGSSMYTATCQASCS

B1: Example 467 (peptide)
chain: YXQGTXTSDYXELLDKKAQXAFIEYLEEGGPSSGAPPPE
modifications: synthetic construct; SITE 2: note = 2-Aminoisobutyric Acid; SITE 6: note = alpha-methyl-2-fluoro-L-phenylalanine; SITE 11: note = alpha-methyl-L-serine; SITE 17: note = Lysine is chemically modified through conjugation of the epsilon-amino group of the Lysine side chain with (2-[2-(2-Amino-ethoxy)-e)
For B1, the Relative cAMP EC50, nM (0.1% casein) (hGLP-1R) was 0.358 nM, the cAMP Rel EC50 (receptor-expressing HEK-293 cells, 1% HSA) (hGLP-1R) was 36.4 nM and the Relative cAMP EC50, nM (0.1% casein) [1] was 9.34 nM. The cAMP Rel EC50 (receptor-expressing HEK-293 cells, 1% HSA) [1] was 850 nM, the Relative cAMP EC50, nM (0.1% casein) [2] was 0.0855 nM and the cAMP Rel EC50 (receptor-expressing HEK-293 cells, 1% HSA) [2] was 10.7 nM.

B2: Example 468 (peptide)
chain: YXQGTXTSDYXILLDKKAQXAFIEYLEEGGPSSGAPPPE
modifications: synthetic construct; SITE 2: note = 2-Aminoisobutyric Acid; SITE 6: note = alpha-methyl-2-fluoro-L-phenylalanine; SITE 11: note = alpha-methyl-L-serine; SITE 17: note = Lysine is chemically modified through conjugation of the epsilon-amino group of the Lysine side chain with (2-[2-(2-Amino-ethoxy)-e)
B2 showed a Relative cAMP EC50, nM (0.1% casein) (hGLP-1R) of 0.466 nM, a cAMP Rel EC50 (receptor-expressing HEK-293 cells, 1% HSA) (hGLP-1R) of 30.7 nM and a Relative cAMP EC50, nM (0.1% casein) [1] of 1.95 nM. It also gave a cAMP Rel EC50 (receptor-expressing HEK-293 cells, 1% HSA) [1] of 195 nM, a Relative cAMP EC50, nM (0.1% casein) [2] of 0.0222 nM and a cAMP Rel EC50 (receptor-expressing HEK-293 cells, 1% HSA) [2] of 4.76 nM.

B3: Example 469 (peptide)
chain: YXQGTXTSDYXILLDKKAQXAFIEYLEEGGPSSGEPPPE
modifications: synthetic construct; SITE 2: note = 2-Aminoisobutyric Acid; SITE 6: note = alpha-methyl-2-fluoro-L-phenylalanine; SITE 11: note = alpha-methyl-L-serine; SITE 17: note = Lysine is chemically modified through conjugation of the epsilon-amino group of the Lysine side chain with (2-[2-(2-Amino-ethoxy)-e)
In the case of B3, the Relative cAMP EC50, nM (0.1% casein) (hGLP-1R) is reported as 0.562 nM, the cAMP Rel EC50 (receptor-expressing HEK-293 cells, 1% HSA) (hGLP-1R) is reported as 61.7 nM and the Relative cAMP EC50, nM (0.1% casein) [1] is reported as 1.34 nM. It also gave a cAMP Rel EC50 (receptor-expressing HEK-293 cells, 1% HSA) [1] of 155 nM, a Relative cAMP EC50, nM (0.1% casein) [2] of 0.031 nM and a cAMP Rel EC50 (receptor-expressing HEK-293 cells, 1% HSA) [2] of 4.24 nM.

B4: Example 495 (peptide)
chain: YXQGTXTSDXSIXLDKKAQXAFIEYLEEGGPSSGAPPPE
modifications: synthetic construct; SITE 2: note = 2-Aminoisobutyric Acid; SITE 6: note = alpha-methyl-2-fluoro-L-phenylalanine; SITE 10: note = 4-nitro-L-phenylalanine; SITE 13: note = alpha-methyl-leucine; SITE 17: note = Lysine is chemically modified through conjugation of the epsilon-amino group of the Lysine
B4 was tested, and the Relative cAMP EC50, nM (0.1% casein) (hGLP-1R) was 0.274 nM, the cAMP Rel EC50 (receptor-expressing HEK-293 cells, 1% HSA) (hGLP-1R) was 53.8 nM and the Relative cAMP EC50, nM (0.1% casein) [1] was 1.75 nM. The cAMP Rel EC50 (receptor-expressing HEK-293 cells, 1% HSA) [1] was 205 nM, the Relative cAMP EC50, nM (0.1% casein) [2] was 0.0361 nM and the cAMP Rel EC50 (receptor-expressing HEK-293 cells, 1% HSA) [2] was 5.74 nM.

B5: Example 503 (peptide)
chain: YXQGTXTSDXXIXLDXKAQXXFIEXLQEGGPSSGEPPPEGTE
modifications: synthetic construct; SITE 2: note = 2-Aminoisobutyric Acid; SITE 6: note = alpha-methyl-2-fluoro-L-phenylalanine; SITE 10: note = 3-(4-Pyridyl)-L-alanine; SITE 11: note = alpha-methyl-L-serine; SITE 13: note = alpha-methyl-leucine; SITE 16: note = L-ornithine; SITE 17: note = Lysine is chemically mo
For B5, the Relative cAMP EC50 (hGLP-1R) was 0.525 nM, the cAMP Rel EC50 (1% HSA) (hGLP-1R) was 26.1 nM and the Relative cAMP EC50 [1] was 3.98 nM. For the same binder, the cAMP Rel EC50 (1% HSA) [1] was 233 nM, the Relative cAMP EC50 [2] was 0.0518 nM and the cAMP Rel EC50 (1% HSA) [2] was 2.02 nM.

B6: Example 471 (peptide)
chain: YXQGTXTSDYSILLDKKAQXAFIEYLEEGGPSSGAPPPEEG
modifications: synthetic construct; SITE 2: note = 2-Aminoisobutyric Acid; SITE 6: note = alpha-methyl-2-fluoro-L-phenylalanine; SITE 17: note = Lysine is chemically modified through conjugation of the epsilon-amino group of the Lysine side chain with (gamma-Glu)2-CO-(CH2)16-CO2H; SITE 20: note = 2-Aminoisobutyric
With B6 the Relative cAMP EC50, nM (0.1% casein) (hGLP-1R) was 0.317 nM, the cAMP Rel EC50 (receptor-expressing HEK-293 cells, 1% HSA) (hGLP-1R) was 37.9 nM and the Relative cAMP EC50, nM (0.1% casein) [1] was 2.19 nM. The cAMP Rel EC50 (receptor-expressing HEK-293 cells, 1% HSA) [1] was 181 nM, the Relative cAMP EC50, nM (0.1% casein) [2] was 0.0296 nM and the cAMP Rel EC50 (receptor-expressing HEK-293 cells, 1% HSA) [2] was 5.45 nM.

B7: Example 466 (peptide)
chain: HXQGTXTSDXXIXLDXKAQXAFIEYLLEGGPSSGEPPPE
modifications: synthetic construct; SITE 2: note = 2-Aminoisobutyric Acid; SITE 6: note = alpha-methyl-2-fluoro-L-phenylalanine; SITE 10: note = 3-(4-Pyridyl)-L-alanine; SITE 11: note = alpha-methyl-L-serine; SITE 13: note = alpha-methyl-leucine; SITE 16: note = L-ornithine; SITE 17: note = Lysine is chemically mo
Binder B7 has a Relative cAMP EC50, nM (0.1% casein) (hGLP-1R) of 0.207 nM, a cAMP Rel EC50 (receptor-expressing HEK-293 cells, 1% HSA) (hGLP-1R) of 13.3 nM and a Relative cAMP EC50, nM (0.1% casein) [1] of 5.84 nM. For the same binder, the cAMP Rel EC50 (receptor-expressing HEK-293 cells, 1% HSA) [1] was 348 nM, the Relative cAMP EC50, nM (0.1% casein) [2] was 0.0466 nM and the cAMP Rel EC50 (receptor-expressing HEK-293 cells, 1% HSA) [2] was 5.65 nM.

B8: Example 479 (peptide)
chain: HXQGTXTSDXXIXLDXKAQXAFIEYLLEGGPSSGEPEPE
modifications: synthetic construct; SITE 2: note = 2-Aminoisobutyric Acid; SITE 6: note = alpha-methyl-2-fluoro-L-phenylalanine; SITE 10: note = 3-(4-Pyridyl)-L-alanine; SITE 11: note = alpha-methyl-L-serine; SITE 13: note = alpha-methyl-leucine; SITE 16: note = L-ornithine; SITE 17: note = Lysine is chemically mo
Work on B8 yielded a Relative cAMP EC50, nM (0.1% casein) (hGLP-1R) of 0.314 nM, a cAMP Rel EC50 (receptor-expressing HEK-293 cells, 1% HSA) (hGLP-1R) of 23.5 nM and a Relative cAMP EC50, nM (0.1% casein) [1] of 5.98 nM. It also gave a cAMP Rel EC50 (receptor-expressing HEK-293 cells, 1% HSA) [1] of 432 nM, a Relative cAMP EC50, nM (0.1% casein) [2] of 0.0905 nM and a cAMP Rel EC50 (receptor-expressing HEK-293 cells, 1% HSA) [2] of 7.11 nM.

B9: Example 487 (peptide)
chain: YXQGTXTSDXSIXLDKKAQXAFIEYLEEGGPSSGEPPPE
modifications: synthetic construct; SITE 2: note = 2-Aminoisobutyric Acid; SITE 6: note = alpha-methyl-2-fluoro-L-phenylalanine; SITE 10: note = 3-(4-Pyridyl)-L-alanine; SITE 13: note = alpha-methyl-leucine; SITE 17: note = Lysine is chemically modified through conjugation of the epsilon-amino group of the Lysine
B9 gave a Relative cAMP EC50, nM (0.1% casein) (hGLP-1R) of 0.639 nM, a cAMP Rel EC50 (receptor-expressing HEK-293 cells, 1% HSA) (hGLP-1R) of 27.7 nM and a Relative cAMP EC50, nM (0.1% casein) [1] of 5.36 nM. It also gave a cAMP Rel EC50 (receptor-expressing HEK-293 cells, 1% HSA) [1] of 477 nM, a Relative cAMP EC50, nM (0.1% casein) [2] of 0.0286 nM and a cAMP Rel EC50 (receptor-expressing HEK-293 cells, 1% HSA) [2] of 2.26 nM.

B10: Example 478 (peptide)
chain: HXQGTXTSDXXIXLDXKAQXNFIEYLLEGGPSSGEPPPE
modifications: synthetic construct; SITE 2: note = 2-Aminoisobutyric Acid; SITE 6: note = alpha-methyl-2-fluoro-L-phenylalanine; SITE 10: note = 3-(4-Pyridyl)-L-alanine; SITE 11: note = alpha-methyl-L-serine; SITE 13: note = alpha-methyl-leucine; SITE 16: note = L-ornithine; SITE 17: note = Lysine is chemically mo
B10 showed a Relative cAMP EC50, nM (0.1% casein) (hGLP-1R) of 0.243 nM, a cAMP Rel EC50 (receptor-expressing HEK-293 cells, 1% HSA) (hGLP-1R) of 28.6 nM and a Relative cAMP EC50, nM (0.1% casein) [1] of 8.07 nM. The cAMP Rel EC50 (receptor-expressing HEK-293 cells, 1% HSA) [1] was 665 nM, the Relative cAMP EC50, nM (0.1% casein) [2] was 0.106 nM and the cAMP Rel EC50 (receptor-expressing HEK-293 cells, 1% HSA) [2] was 26 nM.

B11: Example 486 (peptide)
chain: YXQGTXTSDXSIXLDXKAQXAFIEYLEEGGPSSGEPPPS
modifications: synthetic construct; SITE 2: note = 2-Aminoisobutyric Acid; SITE 6: note = alpha-methyl-2-fluoro-L-phenylalanine; SITE 10: note = 3-(4-Pyridyl)-L-alanine; SITE 13: note = alpha-methyl-leucine; SITE 16: note = L-ornithine; SITE 17: note = Lysine is chemically modified through conjugation of the epsil
For B11, the Relative cAMP EC50, nM (0.1% casein) (hGLP-1R) was 0.375 nM, the cAMP Rel EC50 (receptor-expressing HEK-293 cells, 1% HSA) (hGLP-1R) was 35 nM and the Relative cAMP EC50, nM (0.1% casein) [1] was 4.43 nM. The cAMP Rel EC50 (receptor-expressing HEK-293 cells, 1% HSA) [1] was 647 nM, the Relative cAMP EC50, nM (0.1% casein) [2] was 0.0262 nM and the cAMP Rel EC50 (receptor-expressing HEK-293 cells, 1% HSA) [2] was 2.57 nM.

B12: Example 473 (peptide)
chain: YXQGTXTSDXXIXLDXKAQXNFIEXLIEGGPSSGEPEPSEG
modifications: synthetic construct; SITE 2: note = 2-Aminoisobutyric Acid; SITE 6: note = alpha-methyl-2-fluoro-L-phenylalanine; SITE 10: note = 3-(4-Pyridyl)-L-alanine; SITE 11: note = alpha-methyl-L-serine; SITE 13: note = alpha-methyl-leucine; SITE 16: note = L-ornithine; SITE 17: note = Lysine is chemically mo
B12 was tested, and the Relative cAMP EC50, nM (0.1% casein) (hGLP-1R) was 0.173 nM, the cAMP Rel EC50 (receptor-expressing HEK-293 cells, 1% HSA) (hGLP-1R) was 11.4 nM and the Relative cAMP EC50, nM (0.1% casein) [1] was 2.72 nM. The cAMP Rel EC50 (receptor-expressing HEK-293 cells, 1% HSA) [1] was 311 nM, the Relative cAMP EC50, nM (0.1% casein) [2] was 0.0101 nM and the cAMP Rel EC50 (receptor-expressing HEK-293 cells, 1% HSA) [2] was 1.11 nM.
